Broadly, the Kd is the equilibrium constant for the complex coming apart.

Consider 3 substances from patent US5804412.

Test [1] concerns the target endogenous EGFR of CV-1 cells (monkey (endogenous EGFR of CV-1 monkey kidney cells)). The experiment in a line: Scatchard analysis of 125I-EGF binding to SNX1 transfected CV-1 cells.
The target is the same in test [2]. The experiment in a line: Scatchard analysis of 125I-EGF binding to vector transfected control CV-1 cells.
In test [3] the target is EGFR core tyrosine kinase domain (residues 663-958) fused to LexA (human) (UniProt P00533). As to the kind of experiment: yeast two hybrid, LexA-EGFR bait and SNX1-B42 prey, galactose against dextrose control.
In test [4] the target is endogenous EGFR of CV-1 cells (monkey (endogenous EGFR of CV-1 monkey kidney cells)).

As to 125I-EGF (ligand), the Kd was 1.34 nM in test [1] and 0.73 nM in test [2].
“carboxy terminal 58 amino acids of SNX1 fused to the B42 acid patch transcriptional activation domain”: the induction of β-gal activity in response to galactose induction in test [3] worked out at 400 x.
Substance “human SNX1 (sorting nexin 1), full length” displayed an EGFR half life (35S-methionine pulse chase, immunoprecipitation) in test [4] of 2 h.
